Data on six molecules can be found in PMC5603524, “An alternate mode of oligomerization for E. coli SecA” (Scientific Reports, 2017).

Several values for one entry are separate records, joined by “and”; a condition that tells them apart may be missing. Identical values can stand only once.

One may read the stoichiometry N as a count of units in the complex or per binding partner. What is called Kd is the constant that tells how readily two partners part at equilibrium.

The target of one data set is SecA-N68∆N (E. coli) (UniProt P10408). In words: AUC; sedimentation velocity, 20 °C, 50 mM Tris-HCl pH 7.5, 100 mM KCl, 2 mM EDTA, 5 mM MgCl2, 5 mM TCEP-HCl; SedFit analysis at a range of concentrations.
In the next data set the target is SecA-N68∆C (E. coli) (UniProt P10408). The description is as above.
Data set [1] concerns the molecule itself. The description is as above.
Data set [2] concerns the molecule itself. In words: SEC; analytical gel filtration, Superdex 200 HR 10/30, 50 mM Tris-HCl pH 7.5, 100 mM KCl, 1 mM EDTA, 5 mM MgCl2, 5 mM β-mercaptoethanol, room temperature; H6-SecA-N68 applied at up to 4 mg/mL, SecA-N68∆NC at 10 mg/mL. (In general: SEC sorts molecules by how far they enter the pores of the column.)
Data set [3] deals with the molecule itself. In words: AUC; sedimentation equilibrium, 20 °C, 50 mM Tris-HCl pH 7.5, 100 mM KCl, 2 mM EDTA, 5 mM MgCl2; global fit of nine curves at three rotor speeds; dimer to monomers.

In the data set with SecA-N68∆N (E. coli), “SecA-N68∆N (from UniProt P10408 15-610) (domain or fragment)” had a relative amount of the dimer at 4 mg/mL of 50% and a stoichiometry N of 2.

As for “SecA-N68∆C (from UniProt P10408 1-590) (domain or fragment)”, the stoichiometry N in the data set with SecA-N68∆C (E. coli) worked out at 2.

B1: SecA-N68 with a wild-type N-terminus (domain or fragment, E. coli, UniProt P10408 1-610, looked up)
chain: MLIKLLTKVFGSRNDRTLRRMRKVVNIINAMEPEMEKLSDEELKGKTAEFRARLEKGEVLENLIPEAFAVVREASKRVFGMRHFDVQLLGGMVLNERCIAEMRTGEGKTLTATLPAYLNALTGKGVHVVTVNDYLAQRDAENNRPLFEFLGLTVGINLPGMPAPAKREAYAADITYGTNNEYGFDYLRDNMAFSPEERVQRKLHYALVDEVDSILIDEARTPLIISGPAEDSSEMYKRVNKIIPHLIRQEKEDSETFQGEGHFSVDEKSRQVNLTERGLVLIEELLVKEGIMDEGESLYSPANIMLMHHVTAALRAHALFTRDVDYIVKDGEVIIVDEHTGRTMQGRRWSDGLHQAVEAKEGVQIQNENQTLASITFQNYFRLYEKLAGMTGTADTEAFEFSSIYKLDTVVVPTNRPMIRKDLPDLVYMTEAEKIQAIIEDIKERTAKGQPVLVGTISIEKSELVSNELTKAGIKHNVLNAKFHANEAAIVAQAGYPAAVTIATNMAGRGTDIVLGGSWQAEVAALENPTAEQIEKIKADWQVRHDAVLEAGGLHIIGTERHESRRIDNQLRGRSGRQGDAGSSRFYLSMEDALMRIFASDRVSGMMRKL
notes: NBD1, PPXD and NBD2 with the unstructured N- and C-termini
As for B1, the “stoichiometry N” value in data set [1] was 2 and 4.

B2: H6-SecA-N68 (domain or fragment, E. coli, UniProt P10408 6-610, looked up)
chain: LTKVFGSRNDRTLRRMRKVVNIINAMEPEMEKLSDEELKGKTAEFRARLEKGEVLENLIPEAFAVVREASKRVFGMRHFDVQLLGGMVLNERCIAEMRTGEGKTLTATLPAYLNALTGKGVHVVTVNDYLAQRDAENNRPLFEFLGLTVGINLPGMPAPAKREAYAADITYGTNNEYGFDYLRDNMAFSPEERVQRKLHYALVDEVDSILIDEARTPLIISGPAEDSSEMYKRVNKIIPHLIRQEKEDSETFQGEGHFSVDEKSRQVNLTERGLVLIEELLVKEGIMDEGESLYSPANIMLMHHVTAALRAHALFTRDVDYIVKDGEVIIVDEHTGRTMQGRRWSDGLHQAVEAKEGVQIQNENQTLASITFQNYFRLYEKLAGMTGTADTEAFEFSSIYKLDTVVVPTNRPMIRKDLPDLVYMTEAEKIQAIIEDIKERTAKGQPVLVGTISIEKSELVSNELTKAGIKHNVLNAKFHANEAAIVAQAGYPAAVTIATNMAGRGTDIVLGGSWQAEVAALENPTAEQIEKIKADWQVRHDAVLEAGGLHIIGTERHESRRIDNQLRGRSGRQGDAGSSRFYLSMEDALMRIFASDRVSGMMRKL
notes: SecA, E. coli, residues 6 to 610; lacks the C-terminal helical domains; The tag MHHHHHH stands in place of the first residues of SecA and was not removed; also called His6-SecA-N68; N-terminal histidine-tagged version of SecA-N68; not shown: His6 (MHHHHHH), N-terminal, kept
As for B2, the binding result in data set [2] is “binds”.

B3: SecA-N95 (domain or fragment, E. coli, UniProt P10408 1-835, looked up)
chain: MLIKLLTKVFGSRNDRTLRRMRKVVNIINAMEPEMEKLSDEELKGKTAEFRARLEKGEVLENLIPEAFAVVREASKRVFGMRHFDVQLLGGMVLNERCIAEMRTGEGKTLTATLPAYLNALTGKGVHVVTVNDYLAQRDAENNRPLFEFLGLTVGINLPGMPAPAKREAYAADITYGTNNEYGFDYLRDNMAFSPEERVQRKLHYALVDEVDSILIDEARTPLIISGPAEDSSEMYKRVNKIIPHLIRQEKEDSETFQGEGHFSVDEKSRQVNLTERGLVLIEELLVKEGIMDEGESLYSPANIMLMHHVTAALRAHALFTRDVDYIVKDGEVIIVDEHTGRTMQGRRWSDGLHQAVEAKEGVQIQNENQTLASITFQNYFRLYEKLAGMTGTADTEAFEFSSIYKLDTVVVPTNRPMIRKDLPDLVYMTEAEKIQAIIEDIKERTAKGQPVLVGTISIEKSELVSNELTKAGIKHNVLNAKFHANEAAIVAQAGYPAAVTIATNMAGRGTDIVLGGSWQAEVAALENPTAEQIEKIKADWQVRHDAVLEAGGLHIIGTERHESRRIDNQLRGRSGRQGDAGSSRFYLSMEDALMRIFASDRVSGMMRKLGMKPGEAIEHPWVTKAIANAQRKVESRNFDIRKQLLEYDDVANDQRRAIYSQRNELLDVSDVSETINSIREDVFKATIDAYIPPQSLEEMWDIPGLQERLKNDFDLDLPIAEWLDKEPELHEETLRERILAQSIEVYQRKEEVVGAEMMRHFEKGVMLQTLDSLWKEHLAAMDYLRQGIHLRGYAQKDPKQEYKRESFSMFAAMLESLKYEVISTLSKVQVRMPE
notes: SecA, E. coli, truncated at residue 835 (stop codon after residue 835); source: E. coli BL21(DE3), purified (ammonium sulfate, PhenylSepharose, Cibacron Blue Sepharose, MonoQ)
Consider B3, for which the “stoichiometry N” value in data set [1] came out at 2. For the same molecule, the Kd in data set [3] is below 1 µM.

B4: SecA-N95ΔN (domain or fragment, E. coli, UniProt P10408 15-835, looked up)
chain: DRTLRRMRKVVNIINAMEPEMEKLSDEELKGKTAEFRARLEKGEVLENLIPEAFAVVREASKRVFGMRHFDVQLLGGMVLNERCIAEMRTGEGKTLTATLPAYLNALTGKGVHVVTVNDYLAQRDAENNRPLFEFLGLTVGINLPGMPAPAKREAYAADITYGTNNEYGFDYLRDNMAFSPEERVQRKLHYALVDEVDSILIDEARTPLIISGPAEDSSEMYKRVNKIIPHLIRQEKEDSETFQGEGHFSVDEKSRQVNLTERGLVLIEELLVKEGIMDEGESLYSPANIMLMHHVTAALRAHALFTRDVDYIVKDGEVIIVDEHTGRTMQGRRWSDGLHQAVEAKEGVQIQNENQTLASITFQNYFRLYEKLAGMTGTADTEAFEFSSIYKLDTVVVPTNRPMIRKDLPDLVYMTEAEKIQAIIEDIKERTAKGQPVLVGTISIEKSELVSNELTKAGIKHNVLNAKFHANEAAIVAQAGYPAAVTIATNMAGRGTDIVLGGSWQAEVAALENPTAEQIEKIKADWQVRHDAVLEAGGLHIIGTERHESRRIDNQLRGRSGRQGDAGSSRFYLSMEDALMRIFASDRVSGMMRKLGMKPGEAIEHPWVTKAIANAQRKVESRNFDIRKQLLEYDDVANDQRRAIYSQRNELLDVSDVSETINSIREDVFKATIDAYIPPQSLEEMWDIPGLQERLKNDFDLDLPIAEWLDKEPELHEETLRERILAQSIEVYQRKEEVVGAEMMRHFEKGVMLQTLDSLWKEHLAAMDYLRQGIHLRGYAQKDPKQEYKRESFSMFAAMLESLKYEVISTLSKVQVRMPE
notes: SecA, E. coli, first 14 N-terminal residues removed, truncated at residue 835; also called SecA-N95∆N; SecA-N95ΔN14
For B4, the “stoichiometry N” value in data set [1] came to 2. In data set [3], this molecule came in with a Kd of 24.5 µM.
